These results are taken from the supplement of paper PMC10567573.

B1: INTS4 (parent)
chain: TIIEPAGESDNPLRFTSGLVVALD
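Also: lentivirally expressed fusions sorted by FACS into six bins by GFP to DsRed ratio, PSI derived from sequencing read proportions per bin multiplied by bin number.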

Variants of B1 are the subject of the data set. The experiment in a line: protein stability index of a GFP-peptide fusion (GPS, HEK-293T) (PSI 1-6); higher = more stable. The conditions noted are these: c terminus: a fixed tail appended.
In the case of TIIRPAGESDNPLRFTSGLVVALD, the protein stability index is 2.94.

TIIWPAGESDNPLRFTSGLVVALD: the protein stability index was 1.56.

Take TIIGPAGESDNPLRFTSGLVVALD: the protein stability index is 2.25.

Take TIITPAGESDNPLRFTSGLVVALD: the protein stability index stood at 2.34.

Regarding TIIVPAGESDNPLRFTSGLVVALD, the protein stability index is 1.98.

In the case of TIIIPAGESDNPLRFTSGLVVALD, the protein stability index worked out at 1.72.

As for TIIKPAGESDNPLRFTSGLVVALD, the protein stability index was 2.19.

In the case of TIIMPAGESDNPLRFTSGLVVALD, the protein stability index came out at 2.1.

With TIIFPAGESDNPLRFTSGLVVALD, the protein stability index was 1.81.

For TIIQPAGESDNPLRFTSGLVVALD, the protein stability index was 2.84.

TIIDPAGESDNPLRFTSGLVVALD: the protein stability index is 3.09.

TIILPAGESDNPLRFTSGLVVALD: the protein stability index turned out to be 2.33.

For TIISPAGESDNPLRFTSGLVVALD, the protein stability index is 2.89.

For the variant TIIPPAGESDNPLRFTSGLVVALD, the protein stability index amounted to 3.15.

In the case of TIICPAGESDNPLRFTSGLVVALD, the protein stability index was determined as 2.05.

With TIIAPAGESDNPLRFTSGLVVALD, the protein stability index was determined as 2.76.

In the case of TIIYPAGESDNPLRFTSGLVVALD, the protein stability index is 1.51.

As for TIINPAGESDNPLRFTSGLVVALD, the protein stability index is 2.09.

For the variant TIIHPAGESDNPLRFTSGLVVALD, the protein stability index is 2.55.

For the variant TFIEPAGESDNPLRFTSGLVVALD, the protein stability index was 3.8.

Turning to TMIEPAGESDNPLRFTSGLVVALD, the protein stability index was 3.38.

For TGIEPAGESDNPLRFTSGLVVALD, the protein stability index came out at 3.51.

On to TRIEPAGESDNPLRFTSGLVVALD, for which the protein stability index came to 3.67.

Consider TWIEPAGESDNPLRFTSGLVVALD, for which the protein stability index was found to be 2.38.

With TSIEPAGESDNPLRFTSGLVVALD, the protein stability index was 3.48.

Regarding TNIEPAGESDNPLRFTSGLVVALD, the protein stability index was 3.9.

With TAIEPAGESDNPLRFTSGLVVALD, the protein stability index was 3.71.

For the variant THIEPAGESDNPLRFTSGLVVALD, the protein stability index worked out at 3.18.

Turning to TEIEPAGESDNPLRFTSGLVVALD, the protein stability index was 3.86.

Take TCIEPAGESDNPLRFTSGLVVALD: the protein stability index worked out at 2.84.

For TPIEPAGESDNPLRFTSGLVVALD, the protein stability index was 3.9.

As to TLIEPAGESDNPLRFTSGLVVALD, the protein stability index was 3.48.

Turning to TQIEPAGESDNPLRFTSGLVVALD, the protein stability index came to 3.22.

In the case of TYIEPAGESDNPLRFTSGLVVALD, the protein stability index amounted to 2.32.

On to TTIEPAGESDNPLRFTSGLVVALD, for which the protein stability index was determined as 3.21.

On to TDIEPAGESDNPLRFTSGLVVALD, for which the protein stability index came to 4.21.

Turning to TVIEPAGESDNPLRFTSGLVVALD, the protein stability index worked out at 3.15.

As to TKIEPAGESDNPLRFTSGLVVALD, the protein stability index was 2.89.

Consider TIIETAGESDNPLRFTSGLVVALD, for which the protein stability index worked out at 2.77.

For the variant TIIEWAGESDNPLRFTSGLVVALD, the protein stability index worked out at 2.53.

With TIIESAGESDNPLRFTSGLVVALD, the protein stability index was found to be 2.33.

Regarding TIIEAAGESDNPLRFTSGLVVALD, the protein stability index stood at 2.37.

For TIIEKAGESDNPLRFTSGLVVALD, the protein stability index is 2.79.

On to TIIEYAGESDNPLRFTSGLVVALD, for which the protein stability index was 1.93.

Take TIIENAGESDNPLRFTSGLVVALD: the protein stability index worked out at 2.91.

TIIELAGESDNPLRFTSGLVVALD: the protein stability index was determined as 2.76.

With TIIEVAGESDNPLRFTSGLVVALD, the protein stability index stood at 2.54.

Consider TIIEFAGESDNPLRFTSGLVVALD, for which the protein stability index came to 1.53.

For the variant TIIEHAGESDNPLRFTSGLVVALD, the protein stability index is 2.83.

For the variant TIIEMAGESDNPLRFTSGLVVALD, the protein stability index is 1.76.

In the case of TIIEEAGESDNPLRFTSGLVVALD, the protein stability index stood at 3.31.

TIIEDAGESDNPLRFTSGLVVALD: the protein stability index is 3.36.

Turning to TIIEGAGESDNPLRFTSGLVVALD, the protein stability index came out at 2.78.

For TIIECAGESDNPLRFTSGLVVALD, the protein stability index is 2.56.

For TIIERAGESDNPLRFTSGLVVALD, the protein stability index came out at 2.51.

On to TIIEQAGESDNPLRFTSGLVVALD, for which the protein stability index turned out to be 2.49.

TIIEIAGESDNPLRFTSGLVVALD: the protein stability index turned out to be 1.5.

Turning to RIIEPAGESDNPLRFTSGLVVALD, the protein stability index turned out to be 2.32.

Consider YIIEPAGESDNPLRFTSGLVVALD, for which the protein stability index worked out at 2.08.

With VIIEPAGESDNPLRFTSGLVVALD, the protein stability index turned out to be 2.23.

As to WIIEPAGESDNPLRFTSGLVVALD, the protein stability index was 2.23.

As for SIIEPAGESDNPLRFTSGLVVALD, the protein stability index turned out to be 3.41.

Turning to TIIEPADESDNPLRFTSGLVVALD, the protein stability index turned out to be 3.74.

Consider TIIEPAMESDNPLRFTSGLVVALD, for which the protein stability index was 2.36.

Consider TIIEPATESDNPLRFTSGLVVALD, for which the protein stability index was determined as 3.08.

In the case of TIIEPAAESDNPLRFTSGLVVALD, the protein stability index turned out to be 3.83.

For TIIEPAYESDNPLRFTSGLVVALD, the protein stability index was determined as 2.45.

Regarding TIIEPAVESDNPLRFTSGLVVALD, the protein stability index is 2.76.

Turning to TIIEPAWESDNPLRFTSGLVVALD, the protein stability index was determined as 2.26.

In the case of TIIEPAFESDNPLRFTSGLVVALD, the protein stability index worked out at 2.78.

Take TIIEPAHESDNPLRFTSGLVVALD: the protein stability index stood at 2.73.

As for TIIEPACESDNPLRFTSGLVVALD, the protein stability index turned out to be 2.56.

With TIIEPAPESDNPLRFTSGLVVALD, the protein stability index turned out to be 3.04.

On to TIIEPAKESDNPLRFTSGLVVALD, for which the protein stability index came out at 2.94.

As for TIIEPAQESDNPLRFTSGLVVALD, the protein stability index worked out at 3.33.

Take TIIEPAEESDNPLRFTSGLVVALD: the protein stability index turned out to be 3.82.

Turning to TIIEPAIESDNPLRFTSGLVVALD, the protein stability index turned out to be 2.84.

As to TIIEPANESDNPLRFTSGLVVALD, the protein stability index is 2.77.

Turning to TIIEPASESDNPLRFTSGLVVALD, the protein stability index stood at 2.9.

Turning to TIIEPALESDNPLRFTSGLVVALD, the protein stability index was 2.67.

For TIIEPARESDNPLRFTSGLVVALD, the protein stability index came to 3.54.

With TIIEPAGESKNPLRFTSGLVVALD, the protein stability index was 2.32.

As to TIIEPAGESPNPLRFTSGLVVALD, the protein stability index stood at 2.83.

As to TIIEPAGESFNPLRFTSGLVVALD, the protein stability index amounted to 2.65.

In the case of TIIEPAGESWNPLRFTSGLVVALD, the protein stability index was 2.85.

Consider TIIEPAGESYNPLRFTSGLVVALD, for which the protein stability index amounted to 1.89.

Take TIIEPAGESTNPLRFTSGLVVALD: the protein stability index was found to be 2.63.

As for TIIEPAGESVNPLRFTSGLVVALD, the protein stability index worked out at 2.

For TIIEPAGESSNPLRFTSGLVVALD, the protein stability index came to 2.72.

On to TIIEPAGESLNPLRFTSGLVVALD, for which the protein stability index came to 1.85.

Turning to TIIEPAGESENPLRFTSGLVVALD, the protein stability index worked out at 2.62.

Consider TIIEPAGESNNPLRFTSGLVVALD, for which the protein stability index is 3.61.

For TIIEPAGESHNPLRFTSGLVVALD, the protein stability index was determined as 2.75.

Regarding TIIEPAGESINPLRFTSGLVVALD, the protein stability index was 2.08.
